Here are results for 1 molecule from PMC4737156, “Taking a molecular motor for a spin: helicase mechanism studied by spin labeling and PELDOR”.

In data set [1] the target is T1, PcrA V344C/Q506C-R1 (2A-2B) (Bacillus stearothermophilus, UniProt P56255 1-724, V344C;Q506C).
T1 sequence: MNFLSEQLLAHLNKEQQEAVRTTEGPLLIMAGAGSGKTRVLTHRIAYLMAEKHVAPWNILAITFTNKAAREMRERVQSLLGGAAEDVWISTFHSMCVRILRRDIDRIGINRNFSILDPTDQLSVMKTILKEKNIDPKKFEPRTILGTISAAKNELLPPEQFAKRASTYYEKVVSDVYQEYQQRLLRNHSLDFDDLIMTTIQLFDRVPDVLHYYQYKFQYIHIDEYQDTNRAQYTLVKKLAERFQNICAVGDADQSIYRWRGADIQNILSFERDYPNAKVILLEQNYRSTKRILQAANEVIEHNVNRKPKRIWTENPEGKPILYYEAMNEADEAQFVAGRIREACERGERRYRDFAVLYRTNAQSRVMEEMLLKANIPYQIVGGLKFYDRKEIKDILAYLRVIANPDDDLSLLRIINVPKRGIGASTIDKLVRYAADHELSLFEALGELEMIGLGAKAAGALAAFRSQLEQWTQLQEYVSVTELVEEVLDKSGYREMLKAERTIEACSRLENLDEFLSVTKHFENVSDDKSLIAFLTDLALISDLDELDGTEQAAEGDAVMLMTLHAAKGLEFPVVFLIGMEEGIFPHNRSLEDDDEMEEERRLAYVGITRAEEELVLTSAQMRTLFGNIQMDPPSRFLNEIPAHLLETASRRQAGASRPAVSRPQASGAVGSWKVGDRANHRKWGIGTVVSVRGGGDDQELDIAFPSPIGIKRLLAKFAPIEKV
Description: PELDOR (DEER) EPR; no nucleotide; distances 37.3 and 44.1 A (1:0.7); PELDOR in D2O buffer (composition, pH not given in material): PcrA 70 uM, DNA 150 uM, nucleotide 10-fold excess, 1 mM MgCl2, 5% EG-d6; XPD 40-50 uM, DNA about 2x, nucleotide/MgCl2 1 mM. Conditions: protein: recombinant; tags: none stated; hairpin, 11 bp duplex, 3' overhang 10 nt.

In data set [2] the target is T2, PcrA E74C/Q506C-R1 (1A-2B) (Bacillus stearothermophilus, UniProt P56255 1-724, E74C;Q506C).
T2 sequence: T1 sequence with E74C, C344V
Kind of data set: PELDOR (DEER) EPR; no nucleotide; distances 35 and 45 A (0.5:1); PELDOR in D2O buffer (composition, pH not given in material): PcrA 70 uM, DNA 150 uM, nucleotide 10-fold excess, 1 mM MgCl2, 5% EG-d6; XPD 40-50 uM, DNA about 2x, nucleotide/MgCl2 1 mM. Conditions: protein: recombinant; tags: none stated; hairpin, 11 bp duplex, 3' overhang 10 nt.

Changes are numbered by the printed parent chain.

For the molecule CGAGCACTGCTTTAGCAGTGCTCGTTTTTTTTTT (structured_DNA) [hairpin with 3'-(dT)10 overhang], the binding result in data set [1] and in data set [2] was “binds” in each case.
